Laboratory results as given in US20150260724A1.

Target: endogenous Fc epsilon receptor I (the IgE receptor) of RBL-2H3 cells (rat) (UniProt P12371)
Assay: cell-based or functional assay

Chain of UniProt P12371 (P12371 24-245): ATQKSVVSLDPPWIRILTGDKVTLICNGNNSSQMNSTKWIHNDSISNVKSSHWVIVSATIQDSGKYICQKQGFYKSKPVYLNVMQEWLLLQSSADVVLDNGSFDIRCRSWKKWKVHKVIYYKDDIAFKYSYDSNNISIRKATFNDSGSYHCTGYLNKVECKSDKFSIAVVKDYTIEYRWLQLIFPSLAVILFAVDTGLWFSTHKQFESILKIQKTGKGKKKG

- FLUORESCENCE (IgE + TNP-BSA, specific exocytosis); 1B7-HEXB clone, HEXB substrate 4MU-NGlc, 30 min: 28600
- FLUORESCENCE (IgE + TNP-BSA, specific exocytosis); 1C4-HEXB clone, HEXB substrate 4MU-NGlc, 30 min: 39200
- FLUORESCENCE (IgE + TNP-BSA, specific exocytosis); 1F10-HEXB clone, HEXB substrate 4MU-NGlc, 30 min: 17400
- FLUORESCENCE (IgE + TNP-BSA, specific exocytosis); 2D1-SEAP clone, phosphatase substrate fluorescein diphosphate, 30 min: 62900
- FLUORESCENCE (IgE + TNP-BSA, specific exocytosis); RBL2H3-HEXB (whole stable population), HEXB substrate 4MU-NGlc, 30 min: 14100
- FLUORESCENCE (IgE + TNP-BSA, specific exocytosis); RBL2H3 cells, HEXB substrate 4MU-NGlc, 30 min: 6420
- FLUORESCENCE (IgE + TNP-BSA, specific exocytosis); RBL2H3 cells, phosphatase substrate fluorescein diphosphate, 30 min: 29900
- LU… (IgE + TNP-BSA, specific exocytosis); supernatant of 12.500 GZB-GLuc cells, coelenterazine: 997
- LU… (IgE + TNP-BSA, specific exocytosis); supernatant of 25.000 GZB-GLuc cells, coelenterazine: 3780
- LU… (IgE + TNP-BSA, specific exocytosis); supernatant of 50.000 GZB-GLuc cells, coelenterazine: 4710
- LU… (IgE + TNP-BSA, specific exocytosis); supernatant of 100.000 GZB-GLuc cells, coelenterazine: 6280
Substance: mouse IgE monoclonal antibody against trinitrophenyl hapten, purified from IgELb4 hybridoma (ATCC TIB-141)
